Results on seven substances are retold here after article PMC4069081, “Multivalent Viral Capsids with Internal Cargo for Fibrin Imaging” (PLoS ONE, 2014).

Series [1] has as its target fibrin clots formed from purified bovine fibrinogen with thrombin and CaCl2 (bovine) (UniProt P12799).
Series [2] relates to fibrin. The note with it: compared with original peptide (Gly-Pro-Arg); ref [41]; cited from earlier work. How it is done: In this work, a peptide targeting group (GPR) with an affinity for fibrin was chosen to create a thrombus targeted VLP [38]. The GPR peptide was derived from the N-terminus of the α-chain of fibrin (Gly-Pro-Arg), and was discovered to bind to a pocket in the C-terminal region of the γ-chain [39], [40]. […] A GPR peptide bearing an o-aminophenol for coupling to MS2 was prepared using solid phase peptide synthesis (Figure 1b). The sequence Gly-Gly-Ser-Lys-Gly-Tyr was added to the peptide to increase the spacing between the binding residues and the capsid, as well as provide a functional handle for modification (Tyr). For peptide samples used in op ...

The conditions of series [3]: compared with original peptide (Gly-Pro-Arg); ref [41]; cited from earlier work. An excerpt: (§1) In this work, a peptide targeting group (GPR) with an affinity for fibrin was chosen to create a thrombus targeted VLP [38]. The GPR peptide was derived from the N-terminus of the α-chain of fibrin (Gly-Pro-Arg), and was discovered to bind to a pocket in the C-terminal region of the γ-chain [39], [40].

Series [4] relates to fibrin. The note with it: competitive binding to the fibrin polymerization pocket; ref [39], [40]; cited from earlier work.
Description: as §1

The substance “free GPS peptide with C-terminal tyrosine” displayed a thrombin-induced clotting time of fibrin (light scattering at 350 nm) at 20 µM peptide; unchanged in series [1] of 13 min.

On to “GPR-MS2: bacteriophage MS2 T19pAF/N87C capsid with the GPR fibrin-targeting peptide coupled to its exterior”, for which, in series [1], the thrombin-induced clotting time of fibrin (light scattering at 350 nm) at 222 nM MS2 capsid (~20 µM peptide) worked out at 51 min.

For the substance Gly-Pro-Arg-Pro-Pro, the “Fibrin binding of extended peptide” value in series [2] is on record as “improved fibrin-binding”. Further, in series [3], the Proteolytic resistance result is “increased proteolytic resistance”.

In series [1], “free GPR peptide with C-terminal tyrosine” had a peptide concentration at which thrombin-induced clotting is inhibited (10 µM to 1.7 mM tested) of over 300 µM and a thrombin-induced clotting time of fibrin (light scattering at 350 nm) at 20 µM peptide; unchanged of 18 min.

On to “Gly-Pro-Arg [originally discovered peptide from N-terminus of the α-chain of fibrin]”, for which the “Inhibition of thrombin-mediated fibrin clotting” value in series [4] is “inhibit thrombin-mediated fibrin clotting”.

Turning to “MS2 capsids (T19pAF/N87C) without peptide”, the thrombin-induced clotting time of fibrin (light scattering at 350 nm) at 222 nM MS2 capsid; unchanged in series [1] came out at 16 min.

In turn, “GPS-MS2: bacteriophage MS2 T19pAF/N87C capsid with the GPS control peptide coupled to its exterior” came in with a thrombin-induced clotting time of fibrin (light scattering at 350 nm) at 222 nM MS2 capsid (~20 µM peptide); unchanged in series [1] of 16 min.
